From paper PMC3411905

B1: Cnn (natural protein)
chain: MNSNRTSSSHNSRNLKILNASFDVPRPPGGGNSPLPSQGRSVRELEEQMSALRKENFNLKLRIYFLEEGQPGARADSSTESLSKQLIDAKIEIATLRKTVDVKMELLKDAARAISHHEELQRKADIDSQAIIDELQEQIHAYQMAESGGQPVENIAKTRKMLRLESEVQRLEEELVNIEARNVAARNELEFMLAERLESLTACEGKIQELAIKNSELVERLEKETASAESSNEAIDSLKVELEACRKENQDLVTSIRTLKHDMKRQVRSMKEAANTMDVQRQSILLLEATIKRKEKSCGSMQKNVLNYEALIAKLNAELETMRQQNVYFRELSENLQQKEVRQLDRGVAIVQPMRMTADAGRFVWQSGTIVAQEPLPLERQSAAATSNVSVSAVRLSSGPPPDQTYPVNGHDRAKYGLLQLFAAKLDWISAVPLALGHLALKIILLAMRLHSCLQNVHIPLRANRDLGAQLADKICELQEAQEKLKERERIHEQACRTIQKLMQKLSSQEKEIKKLNQENEQSANKENDCAKTVISPSSSGRSMSDNEASSQEMSTNLRVRYELKINEQEEKIKQLQTEVKKKTANLQNLVNKELWEKNREVERLTKLLANQQKTLPQISEESAGEADLQQSFTEAEYMRALERNKLLQRKVDVLFQRLADDQQNSAVIGQLRLELQQARTEVETADKWRLECVDVCSVLTNRLEELAGFLNSLLKHKDVLGVLAADRRNAMRKAVDRSLDLSKSLNMTLNITATSLADQSLAQLCNLSEILYTEGDASHKTFNSHEELHAATSMAPTVENLKAENKALKKELEKRRSSEGQRKERRSLPLPSQQFDNQSESEAWSEPDRKVSLARIGLDETSNSLAAPEQAISESESEGRTCATRQDRNRNSERIAQLEEQIAQKDERMLNVQCQMVELDNRYKQEQLRCLDITQQLEQLRAINEALTADLHAIGSHEEERMVELQRQLELKNQQIDQLKLAHSTLTADSQITEMELQALQQQMQEIEQLHADSVETLQSQLQKLKLDAVQQLEEHERLHREALERDWVALTTYQEQAQQLLELQRSLDYHQENEKELKQTLVENELATRALKKQLDESTLQASKAVMERTKAYNDKLQLEKRSEELRLQLEALKEEHQKLLQKRSNSSDVSQSGYTSEEVAVPMGPPSGQATTCKQAAAAVLGQRVNTSSPDLGIESDAGRISSVEVSNAQRAMLKTVEMKTEGSASPKAKSEESTSPDSKSNVATGAATVHDCAKVDLENAELRRKLIRTKRAFEDTYEKLRMANKAKAQVEKDIKNQILKTHNVLRNVRSNMENEL

Molecular target: Sas-4-NΔT GST (Drosophila) (UniProt Q9VI72)
Test: pull-down

| Molecule | fold amount pulled down relative to Sas-4-N [times] |
| --- | --- |
| Grip128 (natural protein) | 3 |
| Asl (from UniProt Q9VNE4 1-994) (natural protein) | 3 |
| γ-tubulin (from UniProt P23257 1-475) (natural protein) | 3 |
| B1 | 3 |
